The values below come from PMC2174359 (The Journal of Cell Biology, 2000).

This test concerns the target Sec13/31p complex (S. cerevisiae, UniProt Q04491 1-297; P38968 1-1273). Kind of test: co-sedimentation.

Sequence of Sec13/31p complex (Q04491 whole entry, chain 1 of 2): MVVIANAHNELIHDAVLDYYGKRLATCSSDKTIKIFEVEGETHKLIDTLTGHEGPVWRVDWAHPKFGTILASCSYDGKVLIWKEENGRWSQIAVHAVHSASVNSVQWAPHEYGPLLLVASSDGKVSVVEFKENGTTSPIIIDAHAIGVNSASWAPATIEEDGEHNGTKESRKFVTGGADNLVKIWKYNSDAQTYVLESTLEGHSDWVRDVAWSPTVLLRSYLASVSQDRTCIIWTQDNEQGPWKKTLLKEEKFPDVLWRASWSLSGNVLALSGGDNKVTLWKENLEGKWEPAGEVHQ
Sequence of Sec13/31p complex (P38968 whole entry, chain 2 of 2): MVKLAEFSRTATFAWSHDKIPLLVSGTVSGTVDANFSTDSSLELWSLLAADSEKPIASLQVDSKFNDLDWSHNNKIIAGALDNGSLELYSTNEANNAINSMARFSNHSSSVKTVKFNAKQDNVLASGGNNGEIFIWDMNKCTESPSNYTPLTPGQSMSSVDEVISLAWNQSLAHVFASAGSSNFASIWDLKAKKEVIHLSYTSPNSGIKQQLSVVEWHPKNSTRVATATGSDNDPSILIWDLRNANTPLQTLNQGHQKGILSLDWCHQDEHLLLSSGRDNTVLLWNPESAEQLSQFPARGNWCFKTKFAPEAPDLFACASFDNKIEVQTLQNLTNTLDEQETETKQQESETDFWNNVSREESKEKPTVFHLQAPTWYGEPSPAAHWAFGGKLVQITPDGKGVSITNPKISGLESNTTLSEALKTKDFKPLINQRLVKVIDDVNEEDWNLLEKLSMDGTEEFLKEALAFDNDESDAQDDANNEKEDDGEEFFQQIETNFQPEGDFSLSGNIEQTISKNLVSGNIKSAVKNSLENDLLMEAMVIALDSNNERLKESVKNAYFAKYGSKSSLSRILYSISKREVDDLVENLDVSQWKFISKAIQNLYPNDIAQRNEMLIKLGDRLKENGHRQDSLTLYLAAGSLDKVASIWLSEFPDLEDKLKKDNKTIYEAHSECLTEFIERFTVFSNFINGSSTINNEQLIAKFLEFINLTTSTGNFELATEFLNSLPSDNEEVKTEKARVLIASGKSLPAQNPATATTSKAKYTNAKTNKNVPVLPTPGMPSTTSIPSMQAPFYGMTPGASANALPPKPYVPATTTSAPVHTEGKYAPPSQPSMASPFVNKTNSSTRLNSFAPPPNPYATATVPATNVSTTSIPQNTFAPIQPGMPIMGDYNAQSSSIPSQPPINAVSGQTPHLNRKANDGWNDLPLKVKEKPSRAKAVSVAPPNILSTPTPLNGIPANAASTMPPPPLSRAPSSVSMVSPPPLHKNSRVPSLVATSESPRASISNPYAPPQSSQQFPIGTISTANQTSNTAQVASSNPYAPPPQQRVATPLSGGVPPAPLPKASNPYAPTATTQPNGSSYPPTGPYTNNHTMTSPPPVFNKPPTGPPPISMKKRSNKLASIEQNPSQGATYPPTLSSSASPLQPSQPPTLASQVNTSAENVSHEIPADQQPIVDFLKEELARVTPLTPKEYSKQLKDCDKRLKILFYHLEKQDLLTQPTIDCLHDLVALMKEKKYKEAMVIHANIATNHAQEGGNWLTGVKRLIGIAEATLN

B1: Lst1p, His6-tagged (LST1-His6) (natural protein, S. cerevisiae, UniProt P38810 1-929, looked up)
chain: MSQQNILAASVSALSLDESTVHTGGASSKKSRRPHRAYHNFSSGTVPTLGNSPYTTPQLNQQDGFQQPQAFTPKQFGGFNNGSGSVMSTPVMVSQERFGASEASSPYGQSMLDMTAPQPTSHIVPTQRFEDQAQYLQRSFETCRDSVPPLPTTQFYCVDQGSCDPHLMSLSMYNIPESEHLRAATKLPLGLTIQPFSTLTPNDAEVPTIPLPMDGTPLRCRRCRAYANPKFQFTYDSSVICNICRVKMQVPGEHFAPMGPNGQRSDLNEKSELLHGTVDFLVPSIYNAIQEKELLPLHYVFLIDVSLLANENGSSLAMVEGVRSCIEYISDFQPNCEVAIIVYDNKLRFFNLRPDLDNAQEYIVSELDDVFLPFYNGLFVKPGNSMKIINDTLIKISGYISTDKYSHVPQVCYGSALQAAKLALDTVTGGQGGKIICSLNSLPTIGNGNLSLKRDNAHIAHVKCDNGFYKKLASDFLKSYISLDLYVTNAGFIDMATVGHPVEMTSGILKYYPHFQQETDAFTLVNDMVTNVSNIVGYQALLKVRCSTGLSVEQYYCDSSDNTDHDPIIPVLTRDTTLDVLLKYDSKIKTGTDVHFQTALLYTDIDGVRKVRSINTSGAVSNNIREIFKFINQNPVMRIMIKDVIKTLGDCDFVKIRRLIDDKMVEILTQYRGLVSSNSSTQLILPDSIKTLPAYMLAFEKSELMKPNAQSTRGNERIYDLLKYDSLNSAQLCYKLYPQIVPFHVLLEETDLTFYDANDKLLQINSSSINNLSVRASHSNFINGGCYLIFQGDTIYLWFNENTNRMLLQDLLSVDESLPVSQISLFSGTLPETGTSINQKASNVIKNWQQVVNKSSLPLVLLRPNVDQYYSNVMSQLLCEDKTVNRIESYDNYLVIMHKKIQEKLQKDDFIKVSTAATHENIHQKFVQF
Take B1: the binding result was “binds”.
